Target: T1, Odr10 labelled with GFP2 at the C-terminus (C. elegans)
T1 construct: Fusion protein expressed in S. cerevisiae Invsc1; Assayed in living yeast cells (BRET2) and as digitonin-solubilised crude membrane (co-immunoprecipitation); also called odr-10-GFP2; Odr10-GFP2
Experiment: co-immunoprecipitation with anti-GFP antibody from a mixture of solubilised membranes that expressed each fusion separately (control)
Description: Membrane protein solubilisation and immunoprecipitation procedures were modified according to the method described by Ayoub et al. (2002). Crude membrane was solubilised with 0.5% digitonin (Sigma) and this mixture was stirred for 3 h at 4° C. Non-solubilised membrane proteins were removed by centrifugation at 18,000×g for 30 mins at 4° C. The digitonin concentration was adjusted to 0.2% using cold Buffer B and the polyclonal anti-GFP antibodies (Sapphire Bioscience, Cat No 120-29000) were added to a final dilution of 1:1000. Immune complex formation was allowed to proceed for 12 h at 4° C. with gentle agitation and Protein A-agarose suspension (Sigma) was added to a final volume of 1:10 (agarose suspension:sample) for incubation for another 6 h with gentle agitation at 4° C. After centrifugation for 1 min at 5000×g, supernatant was decanted and the agarose beads washed five times with 0.5 ml of cold Buffer C (Buffer B+0.2% digitonin). Precipitates were analysed by assessing luciferase activity in a luminometer (BMGLabtech) using coelenterazine as substrate (Biosynth AG, Switzerland).
Oligomerisation of Odr-10 in the living yeast cells was confirmed by the pairwise expression of receptor-Rluc and -GFP² fusion, followed by precipitation using anti-green fluorescence protein antibodies and measuring co-immunoprecipitated luciferase activity. […]

luciferase activity recovered relative to co-expressed odr-10-GFP^2 and odr-10-Rluc: < 20%
B1: Odr10 labelled with Rluc at the C-terminus (receptor)
chain: MSGELWITLVDTADIVGVTLTFCVNIVLLGLLKTRGKNLGTYKYLMAFFSVFSIFYAIIEFILRPIMHIENTTFFLISRKRFNYSTKLGKINSAFYCACFATSFVVSGVHFVYRYFATCKPNLLRLFNLPTLLLWPLGCSVPVTMWASVSYFLYPDTEYTEAAVTNVLNNHYNWIKKENVSYIAYVYYQYENGVRHIYLKNLLGCFVHYFVMSMTFVVMFYCGYATWKTMNEHKDVSDRTRALQKQLFKALVLQTLIPTIFMYAPTGVMFIAPFFDVNLNANANFIVFCSFLYPGLDPLILILIIRDFRRTIFNFLCGKKNSVDESRSTTRANLSQVPTMTSKVYDPEQRKRMITGPQWWARCKQMNVLDSFINYYDSEKHAENAVIFLHGNAASSYLWRHVVPHIEPVARCIIPDLIGMGKSGKSGNGSYRLLDHYKYLTAWFELLNLPKKIIFVGHDWGACLAFHYSYEHQDKIKAIVHAESVVDVIESWDEWPDIEEDIALIKSEEGEKMVLENNFFVETMLPSKIMRKLEPEEFAAYLEPFKEKGEVRRPTLSWPREIPLVKGGKPDVVQIVRNYNAYLRASDDLPKMFIESDPGFFSNAIVEGAKKFPNTEFVKVKGLHFSQEDAPDEMGKYIKSFVERVLKNEQ
notes: Fusion protein expressed in S. cerevisiae Invsc1; Assayed in living yeast cells (BRET2) and as digitonin-solubilised crude membrane (co-immunoprecipitation); also called odr-10-Rluc; Odr10-Rluc

From patent US20120077210A1 (COMMONWEALTH SCIENTIFIC AND INDUSTRIAL RESEARCH ORGANISATION, published 2012)
